Experimental data taken from the nanobody polyreactivity screen of Harvey et al. (2022).

Experiment: yeast display, Sf9 membrane polyspecificity reagent, FACS + sequencing; frameworks hold sequencing errors
Outline: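 Polyreactivity labels are assigned by the sorting gate from which each nanobody was recovered. The gates were low and high (top ~1%), set on anti-HA fluorescence for expression and streptavidin fluorescence for reagent binding. Before sorting, galactose-induced (36–48 hours) yeast display cells were stained for 1 hour at 4 °C with 10% biotinylated, detergent-solubilized Sf9 membrane reagent.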
With “QVQLVESGGGLVQAGGSLRLSCAASGIIFFPYPMGWYRQAPGKERELVASINISDSSTYYADSVKGRFTISRDTAKNTVDLQMNSLKPEDTAVYYCAADNRGDSWYWHGYWGQGTQVSVSS” the “polyreactivity (PSR sort gate)” value was “low polyreactivity”.
For “QVQLVESGGGLVQAGGSLRLSCAASGIIFFWNAMGWYRQAPGKERELVAAISSGGSTFADSVKGRFTISRDNAKNTVYLQMNSLKPEDTAVYYCAARFYHGYRPYIAIYGYGYWGQGTQVTVSS”, the “polyreactivity (PSR sort gate)” value was “low polyreactivity”.
In the case of “QVQLVESGGGLVQAGGSLRLSCAASGIIFGAYAMGLYRQAPGQERVFVAAISRSGSRTYYADSVKGRFTISRDTAKNTVYLQMNSLKPEDTAVYYCAAESPVLYYWGQGTQVTVSS”, the “polyreactivity (PSR sort gate)” value was “high polyreactivity”.
With “QVQLVESGGGLVQAGGSLRLSCAASGIIFGGNVMGWYRQAPGKERELVAAITWSGGTTYYADSVKGRFTISRDNAKNTVFLQMNSLKPEDTAVYYCAADRVYLDYVAGTYDYWGQGTQVTVSS” the “polyreactivity (PSR sort gate)” value was “low polyreactivity”.
In the case of “QVQLVESGGGLVQAGGSLRLSCAASGIIFGGYAMGWYGQAPGKERELVASITWGGGSTYYADSVKGRFTISRDNAKNTVYLQMNSLKPEDTAVYYCNKRGYPGSDWGQGTQVTVSS”, the “polyreactivity (PSR sort gate)” value was “low polyreactivity”.
For “QVQLVESGGGLVQAGGSLRLSCAASGIIFGGYAMGWYRQAPGKERELVAAITRSGGSTYYADSVKGRFTISRDNAKNTVYLQMNSLKPEDTAVYYCAAVPYRKHSYPFRLNYWGQGTQVTVSS”, the “polyreactivity (PSR sort gate)” value was “high polyreactivity”.
With “QVQLVESGGGLVQAGGSLRLSCAASGIIFGGYDMGWYRQATGKERELVAAISWSGGSTYYADSVKGRFTISRDTAKNTVYLQMNSLKPEDTAVYYCAAAYYAPTRDYYYWGQGTQVTVSS” the “polyreactivity (PSR sort gate)” value was “low polyreactivity”.
For “QVQLVESGGGLVQAGGSLRLSCAASGIIFGPNAMGWYRQAPGKERELVAGIDWSTDSTYYADSVKGRFTLSRDNAKNTVYLQMNSLKPEDTAVYYCAVAENKRFGSVGYYYWGQGTQVTVSS”, the “polyreactivity (PSR sort gate)” value was “low polyreactivity”.
For “QVQLVESGGGLVQAGGSLRLSCAASGIIFGQNALGWYRQAPGKEREVVAAITISGGSTYYSDSVKGRFTISRDNAKNTVYLQMNSLKPEDTAVYYCAAEWYYVYIAPYDYWGQGTQVTVSS”, the “polyreactivity (PSR sort gate)” value was “low polyreactivity”.
With “QVQLVESGGGLVQAGGSLRLSCAASGIIFGRYAMGWYRQATGTVRELVAASTRSGGRTYYADTVKGRFTISRDYAKNTVFVQMNSLKPEDTAVYYCSADASGHSYDYWGQGTQVTVSS” the “polyreactivity (PSR sort gate)” value was “high polyreactivity”.
In the case of “QVQLVESGGGLVQAGGSLRLSCAASGIIFGRYAMGWYRQSPGKERELVAAISSRGGSTYYADSVKGRFTISRDNAKNTVYLQMNSLKPEDTAVYYCAATWGYLRGSTNYYYWGQGTQVTVSS”, the “polyreactivity (PSR sort gate)” value was “high polyreactivity”.
For “QVQLVESGGGLVQAGGSLRLSCAASGIIFGSNAMGWYRQAPGKERELVAAISYSGASTYYADSVKGRFTISRDNAKNTVYLQMNSLKPEDTAVYYCATYSRWDYGYWGQGTQVTVSS”, the “polyreactivity (PSR sort gate)” value was “high polyreactivity”.
In the case of “QVQLVESGGGLVQAGGSLRLSCAASGIIFGSNTMGWYRQAPGKERELVAAITSSDGSTHYADSVKGRFTISRDNAKNTVYLQMKSLKPEDTAVYYCAARKVTYGHSYGYDYWGQGTQVTLSS”, the “polyreactivity (PSR sort gate)” value was “low polyreactivity”.
In the case of “QVQLVESGGGLVQAGGSLRLSCAASGIIFGSYAIGWYRQAPGKERELVAGISRRGDSTYYADSVKGRFTISRDNAKNTVYLQMNSLKPEDTAVYYCAARWFRRSTYLYYYWGQGTQVTVSS”, the “polyreactivity (PSR sort gate)” value was “high polyreactivity”.
In the case of “QVQLVESGGGLVQAGGSLRLSCAASGIIFGSYAMGWSRQAPGKERELVAAISYSGSTFYADSVKGRFTISRDNAKNTVYLQMNSLKPEDTAVYYCNADRYAKWYRKYRPNDYWGQGTQVTVSS”, the “polyreactivity (PSR sort gate)” value was “high polyreactivity”.
In the case of “QVQLVESGGGLVQAGGSLRLSCAASGIIFGTNAMGWSRQAPGKERELVAAITWSGGTYYADSVKGRFTISRDNAKNTVYLQMNSLKPEDTAVYYCAADGSGYYDWYYYWGQGTQVTVSS”, the “polyreactivity (PSR sort gate)” value was “low polyreactivity”.
In the case of “QVQLVESGGGLVQAGGSLRLSCAASGIIFGTNAMGWYRQAPGKERELVAAIRVTGGSTYYADSVKGRFTISRDNAKNTVYLQMNSLKPEDTAVYYCARDSWFVVDMDYWGQGTQVTVSS”, the “polyreactivity (PSR sort gate)” value was “low polyreactivity”.
With “QVQLVESGGGLVQAGGSLRLSCAASGIIFGTYAMGWYRQAPGKERELVAAINWSGGSTYYADSVKGRFTISRDNAKNTVYLQMNSLKPEDTAVYYCAADGNEYDYWGQGTQVTVSS” the “polyreactivity (PSR sort gate)” value was “low polyreactivity”.
In the case of “QVQLVESGGGLVQAGGSLRLSCAASGIIFGVYAMGWYRQAPGKERELVAAIDGNGSSTYYADSVKGRFISSRDNAKTTVYLQMNSLKPEDTAVYYCAADLVWVSTSYYYWGQGTQVTVSS”, the “polyreactivity (PSR sort gate)” value was “low polyreactivity”.
With “QVQLVESGGGLVQAGGSLRLSCAASGIIFGVYAMGWYRQAPGKERELVADISSGDSTNYADSVKGRFTISRANAKNTVYLQMNSLKPEDTAVYYCAAEFGRMYWRYGYWGQGTQVTVSS” the “polyreactivity (PSR sort gate)” value was “low polyreactivity”.
With “QVQLVESGGGLVQAGGSLRLSCAASGIIFGYNVMGWYRQAPGKERELVAAIRYSGGSKYYADSVKGRFTISRDNAKNTVYLQMNSLKPEDTAVYYCAKAYRAAPRESYDYWGQGTQVTVSS” the “polyreactivity (PSR sort gate)” value was “high polyreactivity”.
For “QVQLVESGGGLVQAGGSLRLSCAASGIIFGYYAMAWYRQAPGTERELVAAITSGASTDYADSVKGRFTISRDNAKNNVYLQMNSLKPEDTAVYYCNADTSASTYTFPFDYWGQGTQVTVSS”, the “polyreactivity (PSR sort gate)” value was “low polyreactivity”.
For “QVQLVESGGGLVQAGGSLRLSCAASGIIFGYYAMGRYRQAPGKERELVAAITWSGGSTYYADSVKGRFTISRDNAKNTVYLQMNSLKPEDTAVYYCAAGDPTLLNESFDYWGQGTQVTVSS”, the “polyreactivity (PSR sort gate)” value was “low polyreactivity”.
With “QVQLVESGGGLVQAGGSLRLSCAASGIIFGYYAMGWKRQAPGKERELVAAIDWTGGNTYYADSVKGRFTSSRDNAKNTVYLQMNSLKPEDTAVYYWAADSNSQEDYWGQGTQVTVSS” the “polyreactivity (PSR sort gate)” value was “low polyreactivity”.
For “QVQLVESGGGLVQAGGSLRLSCAASGIIFGYYAMGWYRQAPGKERELVAAISRSGGRTYYADSVKGRFTISRDNAKNTVYLQMNSLKPEDTAVYYCATVTNSKRGFDYWGQGTQVTVLS”, the “polyreactivity (PSR sort gate)” value was “high polyreactivity”.
For “QVQLVESGGGLVQAGGSLRLSCAASGIIFGYYSMGWYRQAPGKERDLVAAITWSGGSTYYADSVKGRFTISRDYAKNTVYLQMNSLKPEDTAVYYCNALGWYGDYDYWGQGTQVTVSS”, the “polyreactivity (PSR sort gate)” value was “low polyreactivity”.
In the case of “QVQLVESGGGLVQAGGSLRLSCAASGIIFHFNDMGWTTQAPGKERELVAAISRRGSTYYADSVTGRFTISRDNAKNSVYLQMNSLKPEDTAVYYCAKYRGRVKTYNGGYDYWGQGTQVSVSS”, the “polyreactivity (PSR sort gate)” value was “low polyreactivity”.
For “QVQLVESGGGLVQAGGSLRLSCAASGIIFHFNDMGWYRLAPGKERELVAAITSGGSTNYADSVKGRFTISRDNAKKTVYLQMNSLKPEDTADYYCAARRGLRLFAYRHGYWGQGTQVTVSS”, the “polyreactivity (PSR sort gate)” value was “low polyreactivity”.
In the case of “QVQLVESGGGLVQAGGSLRLSCAASGIIFHFNDMGWYRQAPGKERELVAAIDSTGSTNYADSVKGRFTISRDNAKNTVNLQMNSLKPEDTAVYYCAADWTLDPSYGYYADDYWGQGTQVTVSS”, the “polyreactivity (PSR sort gate)” value was “low polyreactivity”.
With “QVQLVESGGGLVQAGGSLRLSCAASGIIFIIYTMGWYRQSPGKERELVAAISWSGGSTYYADSVKGRFTISRDNAKNTVYLQMNSLKPEDTAVYYCAADVANWYGGGNSDYDHEYWGQGPQVTVSS” the “polyreactivity (PSR sort gate)” value was “low polyreactivity”.
With “QVQLVESGGGLVQAGGSLRLSCAASGIIFISYDMGWSRQAPGKERELVARINWDGGSTYYADSVKGRFTISRDNAKNTVYLQMNSLKPEDTAVYYCAAGFVGTNYPVLGFSYEYWGQGTQVTVSS” the “polyreactivity (PSR sort gate)” value was “low polyreactivity”.
For “QVQLVESGGGLVQAGGSLRLSCAASGIIFITYAMGWYRQAPGKERELVAAITNSGGGTYYADSVKGRFTISRDNAKNTVYLQMNILKPEATAVYYCAARKTAYGYRYDYWGQGTQVTVSS”, the “polyreactivity (PSR sort gate)” value was “high polyreactivity”.
In the case of “QVQLVESGGGLVQAGGSLRLSCAASGIIFIYNAMGWYRQAPGKERELVGAIRRSGSPSYADSVKGRFTISRDNAKNTVYLQMNSLKPEDTAVYYCAADTSTWFGAYYLRDPYDYWGQGTQVTVSS”, the “polyreactivity (PSR sort gate)” value was “low polyreactivity”.
With “QVQLVESGGGLVQAGGSLRLSCAASGIIFIYYAMGWYRQAPGKERELVAAISQSGVNTYYADSVKGRFTISRDNAKNTVYLQMNSLKPEDTAVYYCAADRYGHFGYWGQGTQVTVSS” the “polyreactivity (PSR sort gate)” value was “high polyreactivity”.
In the case of “QVQLVESGGGLVQAGGSLRLSCAASGIIFKGYAMGWYRQAPGKERELVAGITRNGGGTYYADSVKGRFTISRDNAKNTVYLQMNSLKPEDTAVYYCAARWDYSYRYRLYYWGQGTQVTVSS”, the “polyreactivity (PSR sort gate)” value was “high polyreactivity”.
For “QVQLVESGGGLVQAGGSLRLSCAASGIIFKIYAMGWYRQAPGKERELVAAITRSGTRTYYADSVKGRFTISRDNAKNTVYLQMNSLKPEDTAVYYCNAYTTLAYDLDYWGQGTQVTVSS”, the “polyreactivity (PSR sort gate)” value was “high polyreactivity”.
With “QVQLVESGGGLVQAGGSLRLSCAASGIIFKPYAMGWYRPAPGKERQLVAAITVNGGTTYYADSVKGRFTISRDNAKKTVNVQMNSLKPEDPAFYYCNRGRPGGPSWYHYDYWGQGTEVTVSS” the “polyreactivity (PSR sort gate)” value was “high polyreactivity”.
With “QVQLVESGGGLVQAGGSLRLSCAASGIIFKSYAKGWYRQAPGKARELVAAMSWIGGSTYYADSVKGRFTISRDNAKHTVYFQMTSLKPEATAVYYCNARQYRRSRMDYWGQGTQVTVSS” the “polyreactivity (PSR sort gate)” value was “high polyreactivity”.
In the case of “QVQLVESGGGLVQAGGSLRLSCAASGIIFKSYAMGWYRQAPGKERELVAAISSGGSTYYVDSVKGRFTISRDNAKNTVYLQMNSLKPEDTAVYYCNARYKRYSYDYWGHGTQVTVSS”, the “polyreactivity (PSR sort gate)” value was “high polyreactivity”.
With “QVQLVESGGGLVQAGGSLRLSCAASGIIFKSYAMGWYRQAPGKERELVAAITKRGGSTYYADSVKGRFTISRDNAKNTVYLQMNSLKPEDSAVYYCAAFAVPYDYWGQGTQVTVSS” the “polyreactivity (PSR sort gate)” value was “high polyreactivity”.
In the case of “QVQLVESGGGLVQAGGSLRLSCAASGIIFKVNAMGWYRQAPGKERELVAAISRRGGITYYADSVKGRFTISRDNAKNTVYLQMNSLKPEDSAVYYCAAAYSDYRFSTRYPYNYWGQGTQVTVSS”, the “polyreactivity (PSR sort gate)” value was “high polyreactivity”.
For “QVQLVESGGGLVQAGGSLRLSCAASGIIFKYYAMGWYRQAPGKERELVAAISRSSGSTYYADSVKGRFTISRDNAKNTVYLQMNSLKPEDTAVYYCAASGWPQKYDYWGQGTQVTVSS”, the “polyreactivity (PSR sort gate)” value was “high polyreactivity”.
In the case of “QVQLVESGGGLVQAGGSLRLSCAASGIIFKYYAMGWYRQAPGKERELVAAISSRSGRTYYADSVKGRFTISRDNAKNTVYLQMNSLKPEDTAVYYCNVQVQRSYPYGYWGQGTQVTVSS”, the “polyreactivity (PSR sort gate)” value was “high polyreactivity”.
